T1: DGI-2 polypeptide (UniProt Q15004 1-111, limits assumed)
T1 construct: Vector-derived residues or tag of pIVEX2.3 are not described for this construct; also called KIAA0101
T1 sequence (looked up): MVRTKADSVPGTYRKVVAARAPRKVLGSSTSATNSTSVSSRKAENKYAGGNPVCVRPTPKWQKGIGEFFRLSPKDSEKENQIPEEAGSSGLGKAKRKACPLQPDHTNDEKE

T2: DGI-9 (HEC) (UniProt O14777 1-642, limits assumed)
T2 sequence (looked up): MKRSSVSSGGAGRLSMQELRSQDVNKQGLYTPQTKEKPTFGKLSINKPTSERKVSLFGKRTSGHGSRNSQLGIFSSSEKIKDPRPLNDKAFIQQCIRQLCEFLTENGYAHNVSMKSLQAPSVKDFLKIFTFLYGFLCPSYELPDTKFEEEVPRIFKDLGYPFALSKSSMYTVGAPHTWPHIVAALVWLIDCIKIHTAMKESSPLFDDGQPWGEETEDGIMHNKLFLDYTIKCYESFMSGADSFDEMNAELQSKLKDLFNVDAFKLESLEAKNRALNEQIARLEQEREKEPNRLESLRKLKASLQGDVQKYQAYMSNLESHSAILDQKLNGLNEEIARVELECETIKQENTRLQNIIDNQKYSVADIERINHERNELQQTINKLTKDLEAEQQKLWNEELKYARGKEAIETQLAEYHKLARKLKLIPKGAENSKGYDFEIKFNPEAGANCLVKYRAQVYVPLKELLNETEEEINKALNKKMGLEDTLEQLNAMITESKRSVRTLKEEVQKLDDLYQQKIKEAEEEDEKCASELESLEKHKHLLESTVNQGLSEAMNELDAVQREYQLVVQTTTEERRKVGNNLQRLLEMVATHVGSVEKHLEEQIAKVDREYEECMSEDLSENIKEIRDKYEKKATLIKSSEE

B1: DGI-2-40F-3-D3 (peptide)
peptide: VQFAMTLSSRLWQHARHPLTDDAPPTVSFGTRRETLAGKAAAAGAPVPYPDPLEPRP
notes: not shown: phage gene III coat protein (pCANTAB5E)
B2: DGI-2-40F-3-A7 (peptide)
peptide: CAYRWGLFRGPGRVDYDLQVVGIMMWPGPIPDRSSRGSVAAAAGAPVPYPDPLEPRP
notes: as for B1
B3: DGI-2-40F-3-A1 (SEQ ID NO: 187) (peptide)
peptide: QYFARGSFQFGLSHVLSAAAAFHLYVFCKRLSRGFGIKDDAAAGAPVPYPDPLEPRP
notes: as for B1
B4: DGI-2-40F-3-D1 (peptide)
peptide: MGQGFHYNRQPYMSHQCYAFTFSTPFLDGDRIPHGVSRGLAAAGAPVPYPDPLEPRP
notes: as for B1
B5: DGI-2-40F-3-A12 (peptide)
peptide: RRTQPAYRSGADDRTSGFYCYVTSALSAGAWMPFLPRRLAAAAGAPVPYPDPLEPRP
notes: as for B1
B6: DGI-2-40F-3-B1 (peptide)
peptide: HGTRLRGVDYVMTWAGWQGYSSRKHVQQAVAGSSPGSDELAAAGAPVPYPDPLEPRP
notes: as for B1
B7: DGI-2-40F-3-A8 (peptide)
peptide: GQISLAGVAVCSSERMLLAFSSRVFLPGLKVPVTTSQRGSAAAGAPVPYPDPLEPRP
notes: as for B1
B8: DGI-2-40F-3-B6 (peptide)
peptide: QSNVWVLVGVIMQGVWYQRQHYCVYVMLLSDQVSVLLAVAAAAGAPVPYPDPLEPRP
notes: as for B1
B9: DGI9-20M-4-A414 (peptide)
peptide: FLLQDFIMDAGSFVKPIGVGGAPVPYPDPLEPR
notes: library 20F; not shown: phage gene III coat protein (pCANTAB5E)
B10: DGI9-20M-4-E3 (peptide)
peptide: MAGFRGSGLSGYSEARLPRVGAPVPYPDPLEPR
notes: as for B9
B11: DGI9-20M-4-A12 (peptide)
peptide: SRLALSSQHGLSLVAGRRRGGAPVPYPDPLEPR
notes: library 20R (the E-tag is described for library 20F); not shown: phage gene III coat protein (pCANTAB5E)
B12: DGI9-20M-4-A627 (peptide)
peptide: WDWSRFGAQLRGAILGRATGGAPVPYPDPLEPR
notes: as for B11

One assay concerns the target T1, DGI-2 polypeptide. Nature of the assay: phage ELISA, 405 nm; DGI-2 coated. The procedure: (§1) For analysis of individual target binders, colonies were picked and phage prepared as described above using helper phage, M13KO7. Ninety-six-well microtiter plates were coated with 500 ng/well of specific target protein, 500 ng/well lactate dehydrogenase (LDH) irrelevant or non-specific target, 500 ng/well of positive control antibody raised against ETAG, and negative control of non-fat milk powder-PBS 2% at 4° C. overnight. Plates were then blocked with 350 microliters/well PBS containing 2% non-fat milk for 1 hr at room temperature. One hundred microliters per well of phage from isolated clones were added and plates were incubated at room temperature for 2 hr after centrifuging samples for 20 minutes at 3500 rpm at 4° C. The phage solution was then removed, and the wells were washed three times with PBS at room temperature. Antibody raised against M13 conjugated to horseradish peroxidase (Pharmacia) was diluted 1:3000 in PBS-Tween and added to each well (100 µl/well). Incubation was for 1 hr at room temperature, followed by washing with PBS-(0.5%) Tween 3 times as described. Color was developed by addition of ABTS solution (100 µl/well; Boehringer, Indianapolis, Ind.). Plates were analyzed at 405 nm. A clone was considered "positive" if the $A405$ of the well was $\geq$2-fold over background.
In general terms: An ELISA detects its analyte on a solid surface through an enzyme-linked reagent.
For the molecule B1, the “DGI-2 (OD)” value was determined as 0.9 OD.

For B2, the “DGI-2 (OD)” value is 0.9 OD.

On to B3, for which the “DGI-2 (OD)” value amounted to 0.8 OD.

In the case of B4, the “DGI-2 (OD)” value turned out to be 0.8 OD.

For B5, the “DGI-2 (OD)” value came to 0.9 OD.

With B6, the “DGI-2 (OD)” value came to 0.8 OD.

Take B7: the “DGI-2 (OD)” value came to 0.8 OD.

As for B8, the “DGI-2 (OD)” value was found to be 0.9 OD.

The next assay concerns the target T2, DGI-9 (HEC). Nature of the assay: phage ELISA; DGI-9 coated.
Molecule B9 registered a DGI-9 of 8.7 ratio over background.

As for B10, the DGI-9 turned out to be 7 ratio over background.

In turn, B11 displayed a DGI-9 of 1.9 ratio over background.

Consider B12, for which the DGI-9 is 6 ratio over background.

A further assay has as its target T3, antibody raised against ETAG.
T3 construct: read-out of display; also called E-tag antibody; E tag antibody
Put plainly: phage ELISA, 405 nm; anti-E-tag antibody coated. The procedure: as §1
In the case of B1, the “ETAG (OD)” value was determined as 0.9 OD.

For the molecule B2, the “ETAG (OD)” value came to 8.7 OD.

In the case of B3, the “ETAG (OD)” value came to 2.4 OD.

For B4, the “ETAG (OD)” value turned out to be 4.1 OD.

Consider B5, for which the “ETAG (OD)” value was found to be 4.6 OD.

Regarding B6, the “ETAG (OD)” value turned out to be 6.3 OD.

Take B7: the “ETAG (OD)” value is 1.5 OD.

With B8, the “ETAG (OD)” value was 1.8 OD.

For another assay, the target named is T2, DGI-9 (HEC). Nature of the assay: phage ELISA; DGI-9 signal over LDH signal.
For the molecule B9, the DGI9/LDH is 8.1 ratio.

Consider B10, for which the DGI9/LDH amounted to 7.1 ratio.

As for B11, the DGI9/LDH amounted to 2.1 ratio.

In turn, B12 gave a DGI9/LDH of 6.5 ratio.

For a further assay, the target named is T1, DGI-2 polypeptide. Put plainly: phage ELISA, 405 nm; DGI-2 signal over LDH signal. The procedure:
as §1
As to B1, the “DGI-2/LDH (OD)” value came to 1.1 ratio.

Regarding B2, the “DGI-2/LDH (OD)” value worked out at 1.1 ratio.

In the case of B3, the “DGI-2/LDH (OD)” value was found to be 1.1 ratio.

As for B4, the “DGI-2/LDH (OD)” value was 1 ratio.

With B5, the “DGI-2/LDH (OD)” value amounted to 1.1 ratio.

As for B6, the “DGI-2/LDH (OD)” value came out at 1.2 ratio.

B7: the “DGI-2/LDH (OD)” value turned out to be 1.1 ratio.

Turning to B8, the “DGI-2/LDH (OD)” value is 1.2 ratio.

Another assay addresses T3, antibody raised against ETAG. Nature of the assay: phage ELISA; anti-E-tag antibody coated.
As for B9, the E-Tag is 32.6 ratio over background.

Consider B10, for which the E-Tag is 34.5 ratio over background.

Molecule B11 had an E-Tag of 20.7 ratio over background.

In the case of B12, the E-Tag came to 27.2 ratio over background.

Source of the values: patent publication US7056679 (ANTYRA, dated 2006).
